According to US20110027284A1 (Novartis, published 2011):

T1: recombinant human NiG (human, UniProt Q9NQC3 186-1004)
T1 construct: Recombinant fragment, amine-coupled to a CM5 chip; also called hNiG; human NiG-fragment of NogoA
T1 sequence: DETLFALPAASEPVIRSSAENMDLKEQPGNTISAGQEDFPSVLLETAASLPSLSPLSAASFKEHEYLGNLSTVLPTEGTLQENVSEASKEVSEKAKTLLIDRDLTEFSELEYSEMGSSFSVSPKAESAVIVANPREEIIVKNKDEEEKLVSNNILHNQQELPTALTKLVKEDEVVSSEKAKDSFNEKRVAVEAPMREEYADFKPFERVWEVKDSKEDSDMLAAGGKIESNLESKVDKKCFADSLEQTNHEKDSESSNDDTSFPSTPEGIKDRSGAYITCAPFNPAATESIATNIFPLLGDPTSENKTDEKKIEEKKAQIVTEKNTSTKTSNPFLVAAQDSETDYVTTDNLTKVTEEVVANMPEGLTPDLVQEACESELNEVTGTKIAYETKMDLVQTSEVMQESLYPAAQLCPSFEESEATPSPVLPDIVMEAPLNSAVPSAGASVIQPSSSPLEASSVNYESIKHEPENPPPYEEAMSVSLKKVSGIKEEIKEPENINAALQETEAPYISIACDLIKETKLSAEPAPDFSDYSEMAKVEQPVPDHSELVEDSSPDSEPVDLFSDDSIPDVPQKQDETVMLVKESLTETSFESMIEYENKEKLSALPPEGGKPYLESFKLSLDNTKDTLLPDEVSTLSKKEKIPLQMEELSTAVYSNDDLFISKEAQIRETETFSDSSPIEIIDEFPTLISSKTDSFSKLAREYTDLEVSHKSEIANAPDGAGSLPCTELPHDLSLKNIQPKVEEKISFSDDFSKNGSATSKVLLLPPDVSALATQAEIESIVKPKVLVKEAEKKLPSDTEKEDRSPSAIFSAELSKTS


Biological target: T1, recombinant human NiG
Test: SPR (BIAcore), recombinant human NiG immobilised on a CM5 chip
Procedure: The affinity of the mouse 6A3-IgG1 mAb, 6A3-IgG4 mAb, and of the 6A3 Fab were measured by surface plasmon resonance (SPR) using a BIAcore 2000 optical biosensor (Biacore, Uppsala, Sweden) according to the manufacture's instructions. Recombinant human NIG was covalently immobilized on a flow cell of a CM5 sensor chip using amine-coupling chemistry. Briefly; the carboxymethlyladed dextran matrix was activated by injecting 35 μl of a solution containing 0.025M NHS and 0.1M EDC. […] The deactivation of the remaining NHS-ester group was performed by injection of 35 μl of 1M ethanolamine hydrochloride (pH 8.5). The surface of the sensor chip was regenerated by injecting 5 μl 0.1M HCl. […] After each injection, the sensor chip surface was regenerated with the injection of 10 μl 0.1M HCl without loss of binding activity on the surface. The kinetic constants, ka and kd and the affinity constants KA and KD were evaluated using the BIAevaluations 3.0 software supplied by the manufacturer.
Affinity measurement in BIAcore: The kinetic and the affinity binding constants of the mouse 6A3-IgG1 mAb, 6A3-IgG4 mAb, and of the 6A3 derived monovalent Fab fragment to recombinant human NogoA were measured in real time using surface plasmon resonance (SPR) technology (Biacore). […]

Row | Kd [nM] | Binder
1 | 0.14 | 6A3-IgG4 mAb (antibody, V domains shown, Recombinant human IgG4/kappa made in SP2/0 cells; also called 6A3-Ig4; 6A3-Ab) VH: EVQLVESGGGLVQPGGSLRLSCAASGFTFSNYWMSWVRQAPGKGLEWVATIKQDGSQKNYVDSVKGRFTISRDNAKNSLYLRLNSLRAEDTAVYYCATELFDLWGRGSLVTVSS VL: EIVLTQSPATLSLSPGERATLSCRASQSVSSYLAWYQQKPGQAPRLLIYDASNRATGIPARFSGSGSGTDFTLTISSLEPEDFAVYYCQQRSNWPITFGQGTKLEIKR
2 | 1.1 | 6A3 Fab monovalent fragment with his-tag (Fab, V domains shown, not shown: a dimerising Fc or GST; small tags and cut ends, A his-tag is present, but its chain and position are not stated, so it is left out., Made in E. coli; also called 6A3 derived monovalent Fab fragment; copies: 1 + 1) VH: EVQLVESGGGLVQPGGSLRLSCAASGFTFSNYWMSWVRQAPGKGLEWVATIKQDGSQKNYVDSVKGRFTISRDNAKNSLYLRLNSLRAEDTAVYYCATELFDLWGRGSLVTVSS VL: EIVLTQSPATLSLSPGERATLSCRASQSVSSYLAWYQQKPGQAPRLLIYDASNRATGIPARFSGSGSGTDFTLTISSLEPEDFAVYYCQQRSNWPITFGQGTRLEIK
